The RNAGym collection of RNA variant scans (doi:10.7554/elife.90254)

B1: LINE1-mini (parent)
chain: GGCAGAGCUCAACACAGCGUGGCAAAGUGGCUGUGGCUAGACUGCC

Variants of: B1
Experiment: self-cleavage, relative activity (ratio to wild type); higher = more cleavage; in vitro, sequencing; the parent is a self-cleaving ribozyme

Variant | self-cleavage
A16U G19A | 0.19
A14C A24U | 0.07
C46A | 0.9
G2A U32A | 0.14
C23U G33A | 0.15
A12G G35A | 0.02
A26C G36A | 0.14
A25G A39G | 0.07
G17A U28G | 0.1
U28G G29A | 0.34
C10A U43A | 0.01
A16C C45U | 0.07
C13G G44C | 0.05
U9A G22A | 0.14
G33C G35U | 0.04
G35C C46A | 0.1
U32G A39U | 0.1
A25U G44C | 0.29
G30C C37G | 0.07
C3A G36A | 1.1
A12C U28G | 0.02
C10U G22U | 0.42
A12U C18A | 0.18
A11G U34A | 0.03

Variant | self-cleavage
C10G A24C | 0.06
C13G A14U | 0.09
G27U G40C | 0.16
U9A G40A | 0.19
C15G C42G | 0.1
A41C C45G | 0.1
U9A U43A | 0.2
A14G A39C | 0.39
C3G U28A | 0.22
G17C G35A | 0.11
G2U C42G | 0.02
C3G G7C | 0.05
U20C G36A | 0.11
C8U U38G | 0.04
A14C A26C | 0.16
A16G C37U | 0.04
G5A A41G | 0.04
G1A A16C | 0.11
U28G G33U | 0.06
G27A G40A | 0.18
C3G U20A | 0.35
A4U A41C | 0.11
A12C A14C | 0.02
A39U A41C | 0.13

Variant | self-cleavage
G19A G29U | 0.94
C13A G19C | 0.06
C8A G17A | 0.3
G22A U43C | 0.07
C10G C45G | 0.02
G1C C37G | 0.02
C10U A14G | 0.22
C8A G22A | 0.18
G30C G36A | 0.1
G7A G33U | 0.18
A16C U38C | 0.1
A25U G35C | 0.09
A25C C46U | 0.56
C3G C8G | 0.08
U9C A24U | 0.05
U38C C46A | 1.27
U9A A39G | 0.21
C31G A39C | 0.12
A12U U38C | 0.14
A25G G27A | 0.37
U28G C45G | 0.27
U28G C45U | 0.92
A11U G40C | 0.02
G27U A39U | 0.56

Variant | self-cleavage
G22U A25U | 1.49
A16C U34A | 0.04
G35C C42A | 0.1
C13A G17C | 0.1
G22U C46G | 0.91
G1U A41U | 0.33
G5U G17U | 0.05
A26G C31A | 0.11
C18A C46U | 0.65
G2A U28C | 0.64
G19C G30A | 0.91
U28A G30A | 1.65
G19A A39C | 0.75
G27A U38C | 0.26
C18U U34C | 0.07
U43C G44U | 0.09
G35C G36U | 0.09
G35C G36C | 0.03
C42G G44C | 0.06
C15A C37U | 0.1
C31U C42A | 0.09
G5A A25U | 0.12
A12G C37A | 0.04
G36A C37A | 0.11

Variant | self-cleavage
C3G C15G | 0.04
G1C A12U | 0.06
A14G G36C | 0.07
G21A G33A | 0.08
C15G G33C | 0.25
A4G C8A | 0.32
U20C U32C | 0.05
G5A U43C | 0.07
G5A G44C | 0.06
G7U C18A | 0.08
C8G G44U | 0.04
C15G G21A | 0.08
G5U C45A | 0.08
G21A A39G | 0.14
C8A C31A | 0.36
U20G A24C | 0.28
G19U C45U | 1.38
C31G C37U | 0.05
U20G A26G | 0.43
A25C G44A | 0.42
G2A G17A | 0.2
C10G G21U | 0.14
C8U U43A | 0.08
A6G C10G | 0.02

Variant | self-cleavage
G17A C37A | 0.05
U9C G17U | 0.04
C10G G36U | 0.02
G7C G44A | 0.09
A26U G35C | 0.09
A14C G17A | 0.08
G30A U43C | 0.22
G7U G22A | 0.08
U9A A11C | 0.02
A25U G40U | 0.14
G22U A41G | 0.37
C8U G29C | 0.1
A26C C45G | 0.8
C3U U28G | 0.23
A6U C15U | 0.92
A24C U34C | 0.12
G2C C23A | 0.08
C3G C37A | 0.29
C3A G30A | 1.1
G40A U43A | 0.06
G35A C46U | 0.1
G30A G36A | 0.43
C31U A41C | 0.06
C13U A26G | 0.14

Variant | self-cleavage
G1C G19C | 0.04
U38G A39G | 0.02
U38A G40A | 0.17
A6G A12C | 0.05
G40A G44U | 0.08
A11G G27A | 0.02
U20G | 0.69
C15G G17C | 0.04
C8U G36A | 0.77
G7U C42A | 0.06
C8A C13G | 0.36
A4G G30C | 0.91
G17C A24C | 0.19
G36U A39U | 0.07
A12C C23U | 0.08
A12C C23A | 0.02
A14C C31G | 0.03
C37U U38G | 0.03
C15A U28G | 0.06
A26G C46A | 1.08
